Values belong to the sequence of their own block, whether it stands above or below them.
What was measured:
HLA-A*01:01 [1] = test: IEDB peptide-MHC binding, purified MHC/competitive/fluorescence; filed as Kd, often an IC50 or EC50 that approximates it; ≥ and ≤ were set here for values at or beyond the usual limits of such assays
HLA-A*29:02 = test: as above
HLA-B*46:01 = test: as above
HLA-A*02:03 [2] = test: IEDB peptide-MHC binding, purified MHC/competitive/radioactivity; filed as Kd, often an IC50 or EC50 that approximates it; ≥ and ≤ were set here for values at or beyond the usual limits of such assays
HLA-A*02:01 [3] = test: as above
HLA-A*02:17 = test: as above
HLA-A*24:03 = test: IEDB peptide-MHC binding, purified MHC/competitive/fluorescence; filed as Kd, often an IC50 or EC50 that approximates it; ≥ and ≤ were set here for values at or beyond the usual limits of such assays
HLA-A*68:02 = test: IEDB peptide-MHC binding, purified MHC/competitive/radioactivity; filed as Kd, often an IC50 or EC50 that approximates it; ≥ and ≤ were set here for values at or beyond the usual limits of such assays; conditions: source organism: Dengue virus 3 Martinique/1243/1999
HLA-A*02:06 = test: as above
HLA-A*03:01 = test: IEDB peptide-MHC binding, purified MHC/competitive/fluorescence; filed as Kd, often an IC50 or EC50 that approximates it; ≥ and ≤ were set here for values at or beyond the usual limits of such assays
HLA-B*27:03 = test: as above
HLA-A*02:11 = test: as above
HLA-B*51:01 = test: as above; conditions: source organism: Vibrio parahaemolyticus K5030
HLA-A*02:19 = test: as above
HLA-A*26:01 [4] = test: as above
HLA-A*02:01 [5] = test: as above
HLA-B*18:01 = test: as above; conditions: source organism: Vibrio parahaemolyticus K5030
HLA-B*57:01 = test: as above
HLA-A*26:01 [6] = test: IEDB peptide-MHC binding, purified MHC/competitive/radioactivity; filed as Kd, often an IC50 or EC50 that approximates it; ≥ and ≤ were set here for values at or beyond the usual limits of such assays; conditions: source organism: Dengue virus 4 Philippines/H241/1956
HLA-A*02:03 [7] = test: IEDB peptide-MHC binding, purified MHC/competitive/fluorescence; filed as Kd, often an IC50 or EC50 that approximates it; ≥ and ≤ were set here for values at or beyond the usual limits of such assays; conditions: source organism: Cryptosporidium parvum Iowa II
HLA-B*15:17 = test: as above; conditions: source organism: Cryptosporidium parvum Iowa II
HLA-B*15:01 = test: as above; conditions: source organism: Cryptosporidium parvum Iowa II
HLA-A*01:01 [8] = test: IEDB peptide-MHC binding, purified MHC/competitive/radioactivity; filed as Kd, often an IC50 or EC50 that approximates it; ≥ and ≤ were set here for values at or beyond the usual limits of such assays; conditions: source organism: Dengue virus 4 Philippines/H241/1956
HLA-A*30:01 = test: as above; conditions: source organism: Dengue virus 1 Brazil/97-11/1997
HLA-A*68:01 = test: as above; conditions: source organism: Dengue virus 3 Martinique/1243/1999
HLA-B*45:06 = test: IEDB peptide-MHC binding, purified MHC/competitive/fluorescence; filed as Kd, often an IC50 or EC50 that approximates it; ≥ and ≤ were set here for values at or beyond the usual limits of such assays; conditions: source organism: Dengue virus 3 Philippines/H87/1956
HLA-B*83:01 = test: as above; conditions: source organism: Dengue virus 3 Philippines/H87/1956
HLA-B*15:42 = test: as above; conditions: source organism: Dengue virus 3 Philippines/H87/1956
HLA-A*31:01 = test: as above; conditions: source organism: Dengue virus 3 Philippines/H87/1956
HLA-A*11:01 = test: IEDB peptide-MHC binding, purified MHC/direct/fluorescence; filed as Kd, often an IC50 or EC50 that approximates it; ≥ and ≤ were set here for values at or beyond the usual limits of such assays; conditions: source organism: dengue virus type 2
[9] = source organism: Dengue virus 4 Philippines/H241/1956
[10] = source organism: Vibrio parahaemolyticus K5030
[11] = source organism: Cryptosporidium parvum Iowa II
[12] = source organism: Encephalitozoon cuniculi GB-M1
[13] = source organism: Dengue virus 1 Singapore/S275/1990
[14] = source organism: Dengue virus 2 Peru/IQT2913/1996
[15] = source organism: Dengue virus 2 Thailand/NGS-C/1944

Sequence: MVKMGGLGY
Kd (HLA-A*01:01 [1]; source organism: Rotavirus G3): ≥ 20000 nM
Kd (HLA-A*29:02; source organism: Rotavirus G3): 28.6 nM

Kd (HLA-A*01:01 [1]; source organism: Homo sapiens): 164 nM
Kd (HLA-B*46:01; source organism: Homo sapiens): 31.4 nM
Sequence: VSMDQLASY

Sequence: GLFGKTQVGV
Kd (HLA-A*02:03 [2]; [9]): 0.55 nM
Kd (HLA-A*02:01 [3]; [9]): 6.21 nM
Kd (HLA-A*02:17; [9]): 2760 nM

Sequence: GYDFEREGY
Kd (HLA-A*24:03; source organism: Influenza A virus (A/swine/Italy/1509-6/97(H1N1))): 35.8 nM

Sequence: GVFHTMWHV
Kd (HLA-A*68:02): 7.01 nM
Kd (HLA-A*02:06; source organism: Dengue virus 3 Martinique/1243/1999): 4.41 nM
Kd (HLA-A*02:01 [3]; [9]): 7.59 nM
Kd (HLA-A*02:17; [9]): 109 nM

Kd (HLA-A*02:01 [3]; source organism: Homo sapiens): ≥ 38700 nM
Kd (HLA-A*02:17; source organism: Homo sapiens): ≥ 20600 nM
Sequence: RKSAPSTGGV

Sequence: LQNFCQHLV
Kd (HLA-A*03:01; [10]): ≥ 20000 nM
Kd (HLA-B*27:03; [10]): ≥ 20000 nM
Kd (HLA-A*02:11; [10]): 0.6 nM
Kd (HLA-B*51:01): ≥ 20000 nM
Kd (HLA-A*02:19; [10]): 25.1 nM
Kd (HLA-B*46:01; [10]): ≥ 20000 nM
Kd (HLA-A*26:01 [4]; [10]): ≥ 20000 nM
Kd (HLA-A*02:01 [5]; [10]): 2.4 nM
Kd (HLA-A*29:02; [10]): 19.6 nM
Kd (HLA-B*18:01): ≥ 20000 nM
Kd (HLA-B*57:01; [10]): ≥ 20000 nM
Kd (HLA-A*24:03; [10]): ≥ 20000 nM

Sequence: LLVKLALITV
Kd (HLA-A*02:03 [2]; [9]): 0.18 nM
Kd (HLA-A*02:06; [9]): 769 nM
Kd (HLA-A*02:01 [3]; [9]): 17.6 nM
Kd (HLA-A*02:17; [9]): 6700 nM

Sequence: FMKDGRSLV
Kd (HLA-A*02:03 [2]; [9]): 16.1 nM
Kd (HLA-A*02:06; [9]): 318 nM
Kd (HLA-A*02:01 [3]; [9]): 219 nM
Kd (HLA-A*02:17; [9]): 1660 nM

Sequence: LLAGFMAYM
Kd (HLA-A*02:03 [2]; [9]): 68.5 nM
Kd (HLA-A*26:01 [6]): 1210 nM
Kd (HLA-A*02:01 [3]; [9]): 4.7 nM
Kd (HLA-A*02:17; [9]): 1.97 nM

Sequence: SGLPGIFIV
Kd (HLA-A*03:01; [11]): ≥ 20000 nM
Kd (HLA-A*02:03 [7]): ≥ 20000 nM
Kd (HLA-B*27:03; [11]): ≥ 20000 nM
Kd (HLA-A*02:11; [11]): 5450 nM
Kd (HLA-B*15:17): ≥ 20000 nM
Kd (HLA-A*02:19; [11]): ≥ 20000 nM
Kd (HLA-B*15:01): ≥ 20000 nM
Kd (HLA-B*46:01; [11]): ≥ 20000 nM
Kd (HLA-A*26:01 [4]; [11]): ≥ 20000 nM
Kd (HLA-A*02:01 [5]; [11]): ≥ 20000 nM
Kd (HLA-B*57:01; [11]): ≥ 20000 nM

Kd (HLA-A*02:11; [12]): 129 nM
Kd (HLA-A*02:01 [5]; [12]): 1.4 nM
Sequence: SMIFSVLDA

Sequence: VTYECPLLV
Kd (HLA-A*01:01 [8]): 343 nM
Kd (HLA-A*02:01 [3]; [9]): 26.6 nM
Kd (HLA-A*02:17; [9]): 562 nM

Sequence: AYYKPYVQL
Kd (HLA-A*24:03; source organism: Bacillus cereus G9241): 0.9 nM

Sequence: TMLLMLLPTA
Kd (HLA-A*30:01): 12400 nM
Kd (HLA-A*02:06; source organism: Dengue virus 1 Brazil/97-11/1997): 2.59 nM
Kd (HLA-A*02:01 [3]; [13]): 30.6 nM
Kd (HLA-A*02:17; [13]): 661 nM

Sequence: MLLVLCVTQV
Kd (HLA-A*02:03 [2]; [14]): 175 nM
Kd (HLA-A*02:06; [14]): 84 nM
Kd (HLA-A*02:01 [3]; [15]): 26.5 nM
Kd (HLA-A*02:17; [15]): 843 nM

Sequence: TVMDIISRK
Kd (HLA-A*68:01): 10.5 nM
Kd (HLA-B*45:06): ≥ 5000 nM
Kd (HLA-B*83:01): ≥ 5000 nM
Kd (HLA-B*15:42): ≥ 5000 nM
Kd (HLA-A*31:01): ≥ 50000 nM
Kd (HLA-A*11:01): 1.7 nM

Sequence: LLENDMKFTV
Kd (HLA-A*02:01 [3]; [13]): 5.76 nM
Kd (HLA-A*02:17; [13]): 115 nM
